Laboratory results taken from US20070020327A1.
Read-outs that look alike come from different tables or passages of the source.

Tests used:
HLA-A*1101 (human) [1] = experiment: competition with a radiolabelled standard peptide on purified HLA-A*1101, gel filtration
HLA-A*1101 (human) [2] = experiment: competition with 125I-labelled standard peptide 940.06 for purified HLA, gel filtration; conditions: scale: ratio
HLA-A*0301 (human) = experiment: competition with 125I-labelled standard peptide 941.12 for purified HLA, gel filtration; conditions: scale: ratio
HLA-A*0201 (human) [3] = experiment: competition with 125I standard peptide for purified HLA; gel filtration
HLA-B*0702 (human) = experiment: competition with 125I-labelled standard peptide for purified HLA-B*0702, gel filtration; conditions: scale: ratio
HLA-A*0202 (human) [4] = experiment: inhibition of 125I-labelled probe peptide binding to purified HLA; gel filtration; conditions: remark: other sources report otherwise
HLA-A*0203 (human) [5] = experiment: inhibition of 125I-labelled standard peptide binding to purified HLA-A*0203, gel filtration
HLA-A*0202 (human) [6] = experiment: inhibition of 125I-labelled standard peptide binding to purified HLA-A*0202, gel filtration
HLA-A*0201 (human) [7] = experiment: inhibition of 125I-labelled standard peptide binding to purified HLA-A*0201, gel filtration
HLA-A*0206 (human) [8] = experiment: inhibition of 125I-labelled standard peptide binding to purified HLA-A*0206, gel filtration
HLA-A*0202 (human) [9] = experiment: competitive inhibition of 125I-labelled standard peptide binding to purified HLA, gel filtration; conditions: remark: other sources report otherwise
HLA-A*0202 (human) [10] = experiment: competition with 125I standard peptide for purified HLA; gel filtration
HLA-A*0203 (human) [11] = experiment: as above
HLA-A*0206 (human) [12] = experiment: competition with 125I-labelled standard peptide 941.01 for purified HLA-A*0206, gel filtration; conditions: remark: other sources report otherwise
HLA-A*0206 (human) [13] = experiment: competitive inhibition of 125I-labelled standard peptide binding to purified HLA; conditions: remark: other sources report otherwise
HLA-A*0201 (human) [14] = experiment: as above; conditions: remark: other sources report otherwise
HLA-A*0206 (human) [15] = experiment: inhibition of 125I-labelled probe peptide binding to purified HLA, gel filtration
HLA-A*0201 (human) [16] = experiment: as above
HLA-A*0203 (human) [17] = experiment: as above
HLA-A*6802 (human) [18] = experiment: as above
HLA-A*6802 (human) [19] = experiment: competition with 125I-labelled standard peptide 1072.34 for purified HLA, gel filtration; conditions: scale: ratio
HLA-A*0206 (human) [20] = experiment: competition with 125I-labelled standard peptide 941.01 for purified HLA, gel filtration; conditions: scale: ratio
HLA-A*0202 (human) [21] = experiment: as above; conditions: scale: ratio
HLA-A*0201 (human) [22] = experiment: as above; conditions: scale: ratio
HLA-A*0203 (human) [23] = experiment: as above; conditions: scale: ratio
[24] = remark: other sources report otherwise

YGKVFRGNK (modifications not checked) [PSM peptide … (position 205, 9 amino acids)]
binding affinity ratio (IC50 of standard peptide / IC50 of test peptide) (HLA-A*1101 (human) [1]): 0.0002

CSPSCPLER (modifications not checked) [PAP 347 …]
binding affinity ratio (HLA-A*1101 (human) [2]): 0.0006
binding affinity ratio (HLA-A*0301 (human)): 0.004

SLSLGFLFLL (modifications not checked) [Peptide 1419.51 … (PAP.13)]
IC50 (HLA-A*0201 (human) [3]; [24]): 40 nM

DIESKVDPSK (modifications not checked) [PSM 714 …]
binding affinity ratio (HLA-A*1101 (human) [2]): 0.0002
binding affinity ratio (HLA-A*0301 (human)): 0.0003

HPQKVTKFML (modifications not checked)
binding affinity ratio (HLA-B*0702 (human)): 0.023

VTKFMLCAGR (modifications not checked) [PSA peptide … (position 188, 10 amino acids)]
binding affinity ratio (IC50 of standard peptide / IC50 of test peptide) (HLA-A*1101 (human) [1]; [24]): 0.012

ALFPPEGVSV (modifications not checked) [peptide 1419.61 (PAP.122.V10)]
IC50 (HLA-A*0202 (human) [4]): 1 nM

CAGRWTGGKST (modifications not checked) [… (PSA, position 194)]
binding affinity ratio (IC50 of standard peptide / IC50 of test peptide) (HLA-A*0203 (human) [5]; [24]): 0.025
binding affinity ratio (IC50 of standard peptide / IC50 of test peptide) (HLA-A*0202 (human) [6]; [24]): 0.037
binding affinity ratio (IC50 of standard peptide / IC50 of test peptide) (HLA-A*0201 (human) [7]; [24]): 0.0013
binding affinity ratio (IC50 of standard peptide / IC50 of test peptide) (HLA-A*0206 (human) [8]; [24]): 0.0002

DALFDIESK (modifications not checked) [PSM 710 …]
binding affinity ratio (HLA-A*1101 (human) [2]): 0.0002
binding affinity ratio (HLA-A*0301 (human)): 0.0006

CVSLHLLSNDM (modifications not checked) [… (Kallikrein, position 173)]
binding affinity ratio (IC50 of standard peptide / IC50 of test peptide) (HLA-A*0203 (human) [5]): 0.002
binding affinity ratio (IC50 of standard peptide / IC50 of test peptide) (HLA-A*0201 (human) [7]): 0.0002
binding affinity ratio (IC50 of standard peptide / IC50 of test peptide) (HLA-A*0206 (human) [8]): 0.0009

DTFPTDPIK (modifications not checked) [PAP 51 …]
binding affinity ratio (HLA-A*1101 (human) [2]): 0.0001
binding affinity ratio (HLA-A*0301 (human)): 0.0001

HPQEMKTYSV (modifications not checked) [PSM 618 …]
binding affinity ratio (HLA-B*0702 (human)): 0.0003

KITDVVKVL (modifications not checked) [… (Kallikrein, position 131)]
binding affinity ratio (ratio to standard peptide) (HLA-A*0202 (human) [9]): 0.05

CTGAVPLI (modifications not checked) [CTGAVPLI (Kallikrein, position 14)]
binding affinity ratio (IC50 of standard peptide / IC50 of test peptide) (HLA-A*0203 (human) [5]): 0.0001
binding affinity ratio (IC50 of standard peptide / IC50 of test peptide) (HLA-A*0202 (human) [6]): 0.0001
binding affinity ratio (IC50 of standard peptide / IC50 of test peptide) (HLA-A*0201 (human) [7]): 0.0001
binding affinity ratio (IC50 of standard peptide / IC50 of test peptide) (HLA-A*0206 (human) [8]): 0.0012

KVTEFMLCAGV (modifications not checked) [Peptide 1418.71 … (HuK2.191.V11)]
IC50 (HLA-A*0202 (human) [10]): 10 nM
IC50 (HLA-A*0201 (human) [3]): 56 nM
IC50 (HLA-A*0203 (human) [11]): 26 nM

CALPERPSLYT (modifications not checked) [… (PSA, position 230)]
binding affinity ratio (IC50 of standard peptide / IC50 of test peptide) (HLA-A*0203 (human) [5]; [24]): 0.0071
binding affinity ratio (IC50 of standard peptide / IC50 of test peptide) (HLA-A*0201 (human) [7]; [24]): 0.0008
binding affinity ratio (IC50 of standard peptide / IC50 of test peptide) (HLA-A*0206 (human) [8]; [24]): 0.0016

HPQKVTKFM (modifications not checked)
binding affinity ratio (HLA-B*0702 (human)): 0.17

SIALSVGCTGA (modifications not checked) [… (Kallikrein, position 7)]
binding affinity ratio (IC50 of standard peptide / IC50 of test peptide) (HLA-A*0206 (human) [12]): 0.01

YDAQKLLEK (modifications not checked) [PSM peptide … (position 300, 9 amino acids)]
binding affinity ratio (IC50 of standard peptide / IC50 of test peptide) (HLA-A*1101 (human) [1]): 0.0002

DMSLLKNR (modifications not checked) [PSA 98 DMSLLKNR]
binding affinity ratio (HLA-A*1101 (human) [2]): 0.0001
binding affinity ratio (HLA-A*0301 (human)): 0.0003

HPLYDMSLL (modifications not checked) [PSA 94 …]
binding affinity ratio (HLA-B*0702 (human)): 0.0018

RLSEPAKITDV (modifications not checked) [… (Kallikrein, position 125)]
binding affinity ratio (IC50 of standard peptide / IC50 of test peptide) (HLA-A*0206 (human) [12]): 0.0002

AVYSHGWA (modifications not checked) [AVYSHGWA (Kallikrein, position 41)]
binding affinity ratio (IC50 of standard peptide / IC50 of test peptide) (HLA-A*0202 (human) [6]): 0.0005
binding affinity ratio (IC50 of standard peptide / IC50 of test peptide) (HLA-A*0201 (human) [7]): -0.0001

VVFLTLSVTWV (modifications not checked) [Peptide 63.0185, … (PSA.1.V11)]
IC50 (HLA-A*0206 (human) [13]): 336 nM
IC50 (HLA-A*0201 (human) [14]): 89 nM

LLALFPPEGV (modifications not checked) [Peptide 1419.58 … (PAP.120.L2)]
IC50 (HLA-A*0201 (human) [3]): 5 nM

SVGCTGAVPV (modifications not checked) [Peptide 1418.35 (HuK2.11.V10) …]
IC50 (HLA-A*0206 (human) [15]; [24]): 552 nM
IC50 (HLA-A*0201 (human) [16]; [24]): 104 nM
IC50 (HLA-A*0203 (human) [17]; [24]): 154 nM

ITLSVGCTGAV (modifications not checked) [Peptide 1418.59 (HuK2.8.T2) …]
IC50 (HLA-A*0206 (human) [15]): 206 nM
IC50 (HLA-A*0201 (human) [16]): 294 nM
IC50 (HLA-A*0203 (human) [17]): 40 nM
IC50 (HLA-A*6802 (human) [18]): 121 nM

MPEGDLVYV (modifications not checked) [PSM 169 …]
binding affinity ratio (HLA-B*0702 (human)): 0.0001

GPLVCNGVL (modifications not checked) [Kallikrein 215 …]
binding affinity ratio (HLA-B*0702 (human)): 0.028

CARAYSEKVT (modifications not checked)
binding affinity ratio (IC50 of standard peptide / IC50 of test peptide) (HLA-A*0203 (human) [5]; [24]): 0.02
binding affinity ratio (IC50 of standard peptide / IC50 of test peptide) (HLA-A*0201 (human) [7]; [24]): 0.0074
binding affinity ratio (IC50 of standard peptide / IC50 of test peptide) (HLA-A*0206 (human) [8]; [24]): 0.003

SLQCVSLHV (modifications not checked) [Peptide 1418.19 (HuK2.170.V9) …]
IC50 (HLA-A*0206 (human) [15]; [24]): 4110 nM
IC50 (HLA-A*0201 (human) [16]; [24]): 56 nM
IC50 (HLA-A*0203 (human) [17]; [24]): 48 nM

LMLLRLSEPA (modifications not checked) [Peptide 63.0014 (HuK2.121; PSA.117) …]
IC50 (HLA-A*0201 (human) [16]; [24]): 200 nM
IC50 (HLA-A*6802 (human) [18]; [24]): 5000 nM

VLTAAHCIR (modifications not checked) [PSA peptide … (position 56, 9 amino acids)]
binding affinity ratio (IC50 of standard peptide / IC50 of test peptide) (HLA-A*1101 (human) [1]): 0.0005

CARAYSEKV (modifications not checked)
binding affinity ratio (IC50 of standard peptide / IC50 of test peptide) (HLA-A*0202 (human) [6]): 0.0006
binding affinity ratio (IC50 of standard peptide / IC50 of test peptide) (HLA-A*0201 (human) [7]): -0.0001
binding affinity ratio (IC50 of standard peptide / IC50 of test peptide) (HLA-A*0206 (human) [8]): 0.0002

GLPTQEPA (modifications not checked) [Kallikrein (hK2) peptide GLPTQEPA (position 140)]
binding affinity ratio (HLA-A*6802 (human) [19]): -0.0001
binding affinity ratio (HLA-A*0206 (human) [20]): -0.0001
binding affinity ratio (HLA-A*0202 (human) [21]): 0.0003
binding affinity ratio (HLA-A*0201 (human) [22]): -0.0001
binding affinity ratio (HLA-A*0203 (human) [23]): -0.0001

YASCHLTELY (modifications not checked) [PAP peptide … (position 310, 10 amino acids)]
binding affinity ratio (IC50 of standard peptide / IC50 of test peptide) (HLA-A*1101 (human) [1]; [24]): 0.0002

EIASKFSER (modifications not checked) [PSM 641 …]
binding affinity ratio (HLA-A*1101 (human) [2]): 0.0002
binding affinity ratio (HLA-A*0301 (human)): 0.0006

YGIHKQKEK (modifications not checked) [PAP peptide … (position 247, 9 amino acids)]
binding affinity ratio (IC50 of standard peptide / IC50 of test peptide) (HLA-A*1101 (human) [1]): 0.0002

DLMLLRLSEPV (modifications not checked) [Peptide 63.0109, … (PSA.116.V11)]
IC50 (HLA-A*0201 (human) [14]): 50 nM

DVLLSYPNK (modifications not checked) [PSM 114 …]
binding affinity ratio (HLA-A*1101 (human) [2]): 0.001
binding affinity ratio (HLA-A*0301 (human)): 0.0006

GPLVCNGVL (modifications not checked) [PSA 211 …]
binding affinity ratio (HLA-B*0702 (human)): 0.028

WATEDTMTK (modifications not checked) [PAP peptide … (position 226, 9 amino acids)]
binding affinity ratio (IC50 of standard peptide / IC50 of test peptide) (HLA-A*1101 (human) [1]): 0.0002

GLHGQDLFGI (modifications not checked) [peptide 1166.11 (PAP.196)]
IC50 (HLA-A*0202 (human) [4]): 0.9 nM

KLQCVDLHVV (modifications not checked) [Peptide 63.0058, … (PSA.166.V10)]
IC50 (HLA-A*0206 (human) [13]): 500 nM
